This is an account of results in publication PMC12124961.

Experiment [1] deals with Bxb1 gp31, tail wing arm (Mycobacteriophage Bxb1). Nature of the experiment: cryo-EM structure.
Experiment [2] concerns the target Bxb1 gp19, tail tube protein (Mycobacteriophage Bxb1). Description: cryo-EM structure.

Usually stoichiometry N stands for the number of molecules, sites or subunits per partner or assembly.

In turn, “Bxb1 gp31, tail wing arm (natural protein)” came in with a stoichiometry N in experiment [1] of 2.

Consider “Bxb1 gp19, tail tube protein (natural protein)”, for which the stoichiometry N in experiment [2] stood at 6.
